Experimental data reported in patent publication US20230257479A1 (Genmab, published 2023).
Substitutions are numbered along the chain they refer to. Names may count otherwise.

Key:
[1] = molecular target: T1, full length human 5T4 (SEQ ID NO: 1) on cells (human, UniProt Q13641 32-420); test: flow cytometry, HEK-293 cells transfected with human 5T4, FITC secondary [I)D]
T1 construct: Uniprot Q13641; residues 1-31 are the signal peptide; Used both for transfected HEK-293 cells and for 5T4-expressing human tumor cell lines
T1 sequence: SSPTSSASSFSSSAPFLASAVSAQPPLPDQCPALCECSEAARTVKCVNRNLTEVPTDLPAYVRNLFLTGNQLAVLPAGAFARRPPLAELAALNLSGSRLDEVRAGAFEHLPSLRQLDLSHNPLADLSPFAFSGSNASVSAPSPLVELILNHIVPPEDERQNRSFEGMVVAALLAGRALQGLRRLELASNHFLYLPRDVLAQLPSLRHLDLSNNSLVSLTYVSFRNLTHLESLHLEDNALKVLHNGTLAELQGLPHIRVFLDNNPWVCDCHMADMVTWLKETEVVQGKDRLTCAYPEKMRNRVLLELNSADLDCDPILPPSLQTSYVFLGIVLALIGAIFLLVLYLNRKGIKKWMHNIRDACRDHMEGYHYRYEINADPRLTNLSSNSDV

[2] = molecular target: T2, full length cynomolgus monkey 5T4 on transfected HEK-293 cells (cynomolgus monkey, UniProt Q4R8Y9 35-420); test: flow cytometry, HEK-293 cells transfected with cynomolgus monkey 5T4, FITC secondary [I)D]
T2 construct: Uniprot Q4R8Y9; residues 1-34 are the signal peptide; also called cynomolgus 5T4
T2 sequence: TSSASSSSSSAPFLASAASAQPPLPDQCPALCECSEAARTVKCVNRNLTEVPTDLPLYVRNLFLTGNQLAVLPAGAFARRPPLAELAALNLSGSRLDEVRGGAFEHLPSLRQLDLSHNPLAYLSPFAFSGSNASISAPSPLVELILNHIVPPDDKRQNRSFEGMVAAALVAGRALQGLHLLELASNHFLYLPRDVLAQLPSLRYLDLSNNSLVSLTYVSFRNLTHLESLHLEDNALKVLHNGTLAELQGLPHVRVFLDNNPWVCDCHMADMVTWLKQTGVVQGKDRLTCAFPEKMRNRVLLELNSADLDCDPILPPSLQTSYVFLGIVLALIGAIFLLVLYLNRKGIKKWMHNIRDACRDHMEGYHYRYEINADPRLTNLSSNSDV

[3] = molecular target: T1, full length human 5T4 (SEQ ID NO: 1) on …; test: flow cytometry, FaDu cells, R-PE secondary
[4] = molecular target: T1, full length human 5T4 (SEQ ID NO: 1) on …; test: flow cytometry, OE33 cells, R-PE secondary
[5] = molecular target: T1, full length human 5T4 (SEQ ID NO: 1) on …; test: flow cytometry, SCC-9 cells, R-PE secondary
[6] = molecular target: T1, full length human 5T4 (SEQ ID NO: 1) on …; test: flow cytometry, HeLa cells, PE secondary [II)A]
[7] = molecular target: T1, full length human 5T4 (SEQ ID NO: 1) on …; test: flow cytometry, SK-GT-4 cells, R-PE secondary
[8] = molecular target: T1, full length human 5T4 (SEQ ID NO: 1) on …; test: flow cytometry, HeLa cells, FITC secondary [I)A]
[9] = molecular target: T1, full length human 5T4 (SEQ ID NO: 1) on …; test: flow cytometry, NCI-H292 cells, R-PE secondary
[10] = molecular target: T1, full length human 5T4 (SEQ ID NO: 1) on …; test: flow cytometry, MDA-MB-231 cells, FITC secondary [I)A]
[11] = molecular target: T1, full length human 5T4 (SEQ ID NO: 1) on …; test: flow cytometry, MDA-MB-231 cells, PE secondary [III)A]
[12] = molecular target: T1, full length human 5T4 (SEQ ID NO: 1) on …; test: flow cytometry, HEK-293 cells transfected with human 5T4, PE secondary [II)A]
[13] = molecular target: T2, full length cynomolgus monkey 5T4 on …; test: flow cytometry, HEK-293 cells transfected with cynomolgus monkey 5T4, PE secondary [II)A]
[14] = molecular target: T2, full length cynomolgus monkey 5T4 on …; test: flow cytometry, HEK-293 cells transfected with cynomolgus monkey 5T4, FITC secondary [I)A]
[15] = molecular target: T3, human 5T4ECDHis (mature protein of SEQ ID NO: 99) (human, UniProt Q13641 32-355); test: BLI cross-block; competitor (immobilised): IgG1-5T4-H8-FEAR
T3 construct: ECD of human 5T4 (aa 1-355 of Uniprot Q13641) with C-terminal His tag; residues 1-31 are the signal peptide; also called ECD of human 5T4 with a C-terminal His tag
T3 sequence: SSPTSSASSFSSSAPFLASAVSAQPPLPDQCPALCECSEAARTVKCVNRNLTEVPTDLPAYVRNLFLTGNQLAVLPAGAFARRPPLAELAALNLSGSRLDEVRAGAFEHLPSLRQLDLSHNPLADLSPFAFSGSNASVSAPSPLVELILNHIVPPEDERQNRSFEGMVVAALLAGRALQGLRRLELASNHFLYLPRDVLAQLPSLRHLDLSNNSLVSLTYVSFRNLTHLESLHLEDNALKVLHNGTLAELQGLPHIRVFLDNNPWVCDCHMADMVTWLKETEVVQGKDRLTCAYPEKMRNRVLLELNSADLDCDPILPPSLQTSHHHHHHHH

[16] = molecular target: T3, human 5T4ECDHis (mature protein of SEQ …); test: BLI cross-block; competitor (immobilised): IgG1-5T4-059-FEAR
[17] = molecular target: T3, human 5T4ECDHis (mature protein of SEQ …); test: BLI cross-block; competitor (immobilised): IgG1-5T4-076-FEAR
[18] = molecular target: T3, human 5T4ECDHis (mature protein of SEQ …); test: BLI cross-block; competitor (immobilised): IgG1-5T4-085-FEAR
[19] = molecular target: T3, human 5T4ECDHis (mature protein of SEQ …); test: BLI cross-block; competitor (immobilised): IgG1-5T4-106-FEAR
[20] = molecular target: T3, human 5T4ECDHis (mature protein of SEQ …); test: BLI cross-block; competitor (immobilised): IgG1-5T4-127-FEAR
[21] = molecular target: T3, human 5T4ECDHis (mature protein of SEQ …); test: BLI cross-block; competitor (immobilised): IgG1-5T4-207-FEAR
[22] = molecular target: T3, human 5T4ECDHis (mature protein of SEQ …); test: BLI cross-block; competitor (immobilised): IgG1-5T4-226-FEAR
[23] = molecular target: T3, human 5T4ECDHis (mature protein of SEQ …); test: BLI cross-block; competitor (immobilised): IgG1-5T4-A1-F405L
[24] = molecular target: T3, human 5T4ECDHis (mature protein of SEQ …); test: BLI cross-block; competitor (immobilised): IgG1-5T4-A3-F405L
[25] = molecular target: T3, human 5T4ECDHis (mature protein of SEQ …); test: BLI, antibody on anti-human IgG Fc Capture biosensor, antigen in solution
[26] = molecular target: T1, full length human 5T4 (SEQ ID NO: 1) on …; test: flow cytometry, HEK-293 cells transfected with human 5T4, PE secondary [II)D]
[27] = molecular target: T2, full length cynomolgus monkey 5T4 on …; test: flow cytometry, HEK-293 cells transfected with cynomolgus monkey 5T4, PE secondary [II)D]
[28] = molecular target: T1, full length human 5T4 (SEQ ID NO: 1) on …; test: flow cytometry, HEK-293 cells transfected with human 5T4, PE secondary [II)F]
[29] = molecular target: T2, full length cynomolgus monkey 5T4 on …; test: flow cytometry, HEK-293 cells transfected with cynomolgus monkey 5T4, PE secondary [II)F]

B1: bsIgG1-huCD3-H101G-FEALx5T4-H8-FEAR (bispecific antibody)
heavy: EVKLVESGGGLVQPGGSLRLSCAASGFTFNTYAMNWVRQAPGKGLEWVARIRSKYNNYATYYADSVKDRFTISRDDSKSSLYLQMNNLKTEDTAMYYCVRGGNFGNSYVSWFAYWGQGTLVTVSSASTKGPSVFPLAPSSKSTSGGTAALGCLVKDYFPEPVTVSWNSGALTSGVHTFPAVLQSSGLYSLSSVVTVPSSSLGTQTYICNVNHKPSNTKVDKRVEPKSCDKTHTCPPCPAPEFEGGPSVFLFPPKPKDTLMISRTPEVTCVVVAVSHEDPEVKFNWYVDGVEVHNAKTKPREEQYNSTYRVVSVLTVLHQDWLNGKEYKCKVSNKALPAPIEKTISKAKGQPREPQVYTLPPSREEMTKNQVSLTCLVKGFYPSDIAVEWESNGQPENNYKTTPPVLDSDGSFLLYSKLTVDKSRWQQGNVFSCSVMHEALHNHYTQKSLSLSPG
light: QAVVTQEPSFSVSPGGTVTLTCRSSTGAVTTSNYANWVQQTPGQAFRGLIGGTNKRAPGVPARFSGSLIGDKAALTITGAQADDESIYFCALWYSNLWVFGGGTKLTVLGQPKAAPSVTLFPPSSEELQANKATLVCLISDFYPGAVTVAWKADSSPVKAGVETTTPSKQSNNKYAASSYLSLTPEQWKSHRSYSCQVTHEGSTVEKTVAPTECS
VH: EVQLQQSGPDLVKPGASVKISCKASGYSFTGYYMHWVKQSHGKSLEWIGRINPNNGVTLYNQKFKDKAILTVDKSSTTAYMELRSLTSEDSAVYYCARSTMITNYVMDYWGQVTSVTVSS
VL: SIVMTQTPTFLLVSAGDRVTITCKASQSVSNDVAWYQQKPGQSPTLLISYTSSRYAGVPDRFIGSGYGTDFTFTISTLQAEDLAVYFCQQDYNSPPTFGGGTKLEIK
notes: Fab-arm exchange product
binding result [1]: binds | EC50 (read off the curve) [2]: ~0.1 µg/mL

B2: bsIgG1-huCD3-H101G-FEALx5T4-207-FEAR (bispecific antibody)
heavy 1: not shown
light 1: not shown
heavy 2: QVQLQQWGAGLLKPSETLSLTCAVYGGSFSGYYWTWIRQPPGKGLEWIGEIDHSESTNYNPSLKSRVTISVDTSKNQFSLKLSSVTAADTAVYYCAGWFGELYHYYYGMDVWGQGTTVTVSSASTKGPSVFPLAPSSKSTSGGTAALGCLVKDYFPEPVTVSWNSGALTSGVHTFPAVLQSSGLYSLSSVVTVPSSSLGTQTYICNVNHKPSNTKVDKRVEPKSCDKTHTCPPCPAPEFEGGPSVFLFPPKPKDTLMISRTPEVTCVVVAVSHEDPEVKFNWYVDGVEVHNAKTKPREEQYNSTYRVVSVLTVLHQDWLNGKEYKCKVSNKALPAPIEKTISKAKGQPREPQVYTLPPSREEMTKNQVSLTCLVKGFYPSDIAVEWESNGQPENNYKTTPPVLDSDGSFFLYSRLTVDKSRWQQGNVFSCSVMHEALHNHYTQKSLSLSPG
light 2: not shown
notes: also called CD3x5T4 bispecific antibody
EC50 (read off the curve) [3]: ~0.06 µg/mL | EC50 (read off the curve) [4]: ~0.08 µg/mL | EC50 (read off the curve) [5]: ~0.08 µg/mL | EC50 (read off the curve) [6]: ~0.04 µg/mL | EC50 (read off the curve) [7]: ~0.08 µg/mL | EC50 (read off the curve) [8]: ~0.04 µg/mL | EC50 (read off the curve) [9]: ~0.03 µg/mL | EC50 (read off the curve) [10]: ~0.1 µg/mL | EC50 (read off the curve) [11]: ~0.04 µg/mL | EC50 (read off the curve) [12]: ~0.06 µg/mL | EC50 (read off the curve) [13]: ~0.03 µg/mL | EC50 (read off the curve) [14]: ~0.1 µg/mL

B3: IgG1-5T4-106-FEAR (antibody, V domains shown)
VH: EVQLVQSGAEVKKPGESLKISCKGSGYRFTSYWIGWVRQMPGKGLEWMGIIYPGDSDARYSPSFQGQVTISADKSISTAYLQWSSLKASDTGMYYCARSVLFDYWGQGTLVTVSS
VL: AIQLTQSPSSLSASVGDRVTITCRASQGISSALAWYQQKPGKAPKLLIYDVSNLESGVPSRFSGSGSGTDFTLTISSLQPEDFATYYCQQFNSYPHTFGQGTKLEIK
notes: Monospecific, bivalent human IgG1 kappa with L234F, L235E, D265A, K409R (FEAR)
corrected association response [15]: -0.01 nm | corrected association response [16]: 0.01 nm | corrected association response [17]: -0.02 nm | corrected association response [18]: -0.01 nm | corrected association response [19]: -0.02 nm | corrected association response [20]: -0.01 nm | corrected association response [21]: -0.01 nm | corrected association response [22]: -0.02 nm | corrected association response [23]: 0.85 nm | corrected association response [24]: 0.57 nm | Kd [25]: 5.5 nM | koff [25]: 0.0012 s⁻¹ | kon [25]: 210000 M⁻¹ s⁻¹ | EC50 (read off the curve) [26]: ~0.01 µg/mL | binding result [27]: binds

B4: bsIgG1-huCD3-H101G-FEALx5T4-085-FEAR (bispecific antibody)
heavy: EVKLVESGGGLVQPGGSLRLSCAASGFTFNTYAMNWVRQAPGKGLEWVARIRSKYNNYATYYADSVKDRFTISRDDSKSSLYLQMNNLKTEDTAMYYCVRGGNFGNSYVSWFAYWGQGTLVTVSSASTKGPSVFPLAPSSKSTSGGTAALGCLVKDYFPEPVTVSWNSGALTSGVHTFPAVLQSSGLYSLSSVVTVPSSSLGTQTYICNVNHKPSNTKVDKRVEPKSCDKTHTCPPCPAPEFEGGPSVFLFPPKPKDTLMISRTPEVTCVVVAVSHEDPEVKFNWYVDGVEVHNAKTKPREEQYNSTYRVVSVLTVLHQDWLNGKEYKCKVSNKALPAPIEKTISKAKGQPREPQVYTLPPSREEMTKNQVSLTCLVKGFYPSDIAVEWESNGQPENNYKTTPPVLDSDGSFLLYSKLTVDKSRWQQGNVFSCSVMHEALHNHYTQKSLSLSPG
light: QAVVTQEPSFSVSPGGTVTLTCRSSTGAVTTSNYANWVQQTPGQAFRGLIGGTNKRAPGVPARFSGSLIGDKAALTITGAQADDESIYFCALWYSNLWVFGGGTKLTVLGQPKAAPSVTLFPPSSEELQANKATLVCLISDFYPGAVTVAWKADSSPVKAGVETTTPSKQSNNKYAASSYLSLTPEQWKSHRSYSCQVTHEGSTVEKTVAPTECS
VH: EVQLLESGGGLVQPGGSLRLSCAASGFTFSSYAMSWVRQAPGKGLEWVSAISGSGGSTYNADSVKGRFTIFRDNSKNTLYLHMNSLRAEDTAVYYCARDPGYNNVEYLDHWGQGTLVTVSS
VL: B3 VL with V51A, N53S, H96L, Q100G, L104V
notes: Fab-arm exchange product
EC50 (read off the curve) [28]: ~0.5 µg/mL | EC50 (read off the curve) [29]: ~0.4 µg/mL
